These results are taken from the DeepSol protein solubility set.

A short description of this data set: soluble on expression in E. coli; label from the status in PepcDB or PDB records.
With “MGSDKIHHHHHHMVDADQLRQWGRKVIDTERNALDNLYQYVDSSEFAKACQLILACTGKVIVMGMGKSGHIGNKISATLASTGTPAFFVHPGEASHGDLGVLSENDIVLAISNSGEASEILTLMPVIKRMGLPVIAVTGKPESNMAKHSVVHLCIEVPEEACPLGLAPTSSTTATLVMGDALAVALLQARGFTKDDFALSHPGGSLGRKLLLKVSDVMHKGDDLPLVAEDICITEALYEISKKGLGMTGVVNSQGMLVGIFTDGDLRRVIDAEINLRKTSISEVMTHGCVTVSEGILAAQALKVMDEKEINGLIVTDEQQKPIGALNMLDMVKAGVI”, the “soluble on expression in E. coli” value was “not soluble”.

Consider “MGSDKIHHHHHHMVDLDLTQIQKDILYALITLYKKKSGGSVKGEEIAELINRNPGTVRNQMQALRALGLVEGVPGPKGGYRPTSKAYELLSVTRPEESVVVPVVVNGNVMEELSAEEIVLPSISNPNICQARIRIIGDIKKINPGDSVIVGPTPVNEMMVYGKVVGRDDTENTIVLDIEKIVALPKDTVGEHMSSPIISVDAEESVVNAAKVLAENGIYCTPVQKNGKFVGIFTLDHVAKAVAEGKLNAKVEEVMRPKLVMVEKDTKIGEALRLMRDEKVRILLVTDKGEPVGVITDQKILTRLAPEQVET”, for which the “soluble on expression in E. coli” value is reported as “not soluble”.

Take “MGSDKIHHHHHHMVDQSQLRQWGCKVIDIEKSALDNLYQYVDSAEFAQACELILNCSGKVIVMGMGKSGHIGNKISATLASTGTPAFFVHPGEASHGDLGVLSDNDIILAISNSGESSEILALMPVIQRKAIPVIAMTGKPESTMARLAKIHLCIEVPEEACPLGLAPTSSTTATLVMGDAMAIALLQAKGFTRDDFAMSHPGGALGRKLLLKVSNVMHCGDDLPLVKHDICITDALYEISKKGLGMTAIIDEQNKLVGIFTDGDLRRVIDAQVNLRTTPIADVMTRNCVTITENVLAAQALQVMDSRNINGLIVIDKENHPVGALNMLDMVKAGVI”: the “soluble on expression in E. coli” value is listed as “not soluble”.

As for “MGSDKIHHHHHHMVHSTPTTFAGSKSARPRVAIAGFQHETNTFAPFGAPFDDFVRGGGWPAMTTGAAILDVFPPIEIPIGGFISAAKDTYELIPLVWAAAEPTSFVSDDAFERIAGMICDGIARAGPLDAIYLDLHGAMVVESYQDGEGELLRRVREIVGRDIPIMISLDFHANVTEAMVELSDGITIFRTYPHIDLADTGGRAFSLLEQRIRRGRPFIKAFRKTPFLIPLPAQCTDLEPCMSLYAGLQERVKGPVLNVDVALGFPLADIRECGPAVVAYGIDEVAVTAAADMQLSDMLEAEGRFHMSLLDVKEAVEHAARNGRKGSLIVLADVQDNPGCGGTSDTIGLLKGMVEGGLRNGVLGLLWDPETAEAAHTAGLGAELDVRLGGRYGYDSEPYLARVRVEALSDGVFKANGPCLGGVQVDLGRMARLLILNPGSSVQVVVSSVRFQCLDQDLLRAVGVEPRDQSVVAVKSAVHFRADFAPIAEEILTVESPGAHWCRNDILDYKNLRDGVRRMPISLATQPSEVKIAERRH”, the “soluble on expression in E. coli” value is “not soluble”.

On to “MGSDKIHHHHHHMVKIKEGFKGERLVSLPEELLASYRREPLINNLYVRKIGFFPRVKYHFLQKEHGCDYAMLIYCTEGKGWYRILGKQYTVEKYQYIIIPPGIPYSFGADEGDPWTIYWLHFQGKLCDQFLPSHPVPVTISPNEYSRLQDRLRLFEEIYSSFSMGYIKEYMIYSSMCLYNFLASFIYLEQFRHIMIPSQKEYPFTARVIHYMRENIQQNLTLKELASYFKYSPSHFSALFFGETGVSPMNYFIRLKIQKACEYIELTNMKLNEIATHLGFEDAAYFSRTFTKVMGCSPSVYRKKEMEI”, for which the “soluble on expression in E. coli” value is on record as “not soluble”.

On to “MGSDKIHHHHHHMVTFSIRIISSDRIFLVAEVKALERVYVIGHKNPDTDSVCSAIGYAHFKNNVEKGKTFIPARSGDLTNESLFVLKYFGMNPPLHIETLEPTVEDLELKNPIFVTPDTSAYDVAMLMESRGIKNVPVVSKEKMIGVVTESNIARVYVRRLKIEPLVIHPVPFDQLVRILKAEVVCDYMKEKTVSGKVHIAVDALHVLLGKIEIGDVVIVGDNEPAQIALLEKGAKLMIVVNNAPVSNRVLEIAKEKNAAVLRVKFDAFSAAKLINLSLPVTLVMSKKFPTVTKKDTLEEVKEIVFTSKIRAAFVEDEKGRLCGVITRTDLLKDVRKKVILVDHNEITQAPEGVEKAEILEIIDHHRLGGLSTLNPVFFYNEPVGSTSTIVAEFFLKNGVKMEREIAGILLSGIVSDTLFFKLSTTTEKDRKMANFLADVAKLDLEKFAKKLLKEGMKIPEDVDPAELLKRDVKVYEMGEESFAVSQIMTSDFSTLLKEKERFMNTLKTLKGEFGVKHFFVLFTNPVEEASLLMMDGDQKLVEKAFNAEKKDGLFLLKGVMSRKKDFVPKIGEVLRRER”, for which the “soluble on expression in E. coli” value is “not soluble”.

“MGSDKIHHHHHHMVVNALAVGCGLNVAPAQAHKFASNYHCFMVRRFDRTNAGRRLHFASAMTLTRHQDGEDASTGVSYLELADVLIRHGAQTNTDLKELWSRIVFNILVSNTDDHLRNHGYILIPGKGWRLSEAYDLNPVARSDGLKLNITENDNALDLELAREVAEYFRLGLTEADDIIANFRGIVSQWRIIAERLRLPGREQELMAEAFRGAI”: the “soluble on expression in E. coli” value is given as “not soluble”.

On to “MGSDKIHHHHHHMVVNLEGKISKIGQNMKSSIIREILKFAADKDAISFGGGVPDPETFPRKELAEIAKEIIEKEYHYTLQYSTTEGDPVLKQQILKLLERMYGITGLDEDNLIFTVGSQQALDLIGKLFLDDESYCVLDDPAYLGAINAFRQYLANFVVVPLEDDGMDLNVLERKLSEFDKNGKIKQVKFIYVVSNFHNPAGVTTSLEKRKALVEIAEKYDLFIVEDDPYGALRYEGETVDPIFKIGGPERVVLLNTFSKVLAPGLRIGMVAGSKEFIRKIVQAKQSADLCSPAITHRLAARYLERYDLLEQLKPTIELYRRKRTVMLNALEEYFSDIPGVKWVKSEGGLFIWLTLPEGFDTWEMFEYAKRKKVFYVPGRVFKVYDEPSPSMRLSFCLPPDEKIVEGIKRLREVVLEYGKEKHLL”, for which the “soluble on expression in E. coli” value was “soluble”.

For the sequence “MGSDKIHHHHHHMWIRTHYFMAKSIHSYIKEKYKVSLQLDQLQYGSIKPDLLPKYWEGSHYYESCSGTWLAEVAQLLGEQKKRSIRNFSDKLGVILHFTADFFCSAHNLPNLRENMWEHLLYELKLDVAFRHFESFRGIQCLNYDDPYDLLTCCRQDYLSGQPSLERDIHYIYAASLSITDLLVTQALLPVAKPLMLLKDLPESS”, the “soluble on expression in E. coli” value is “not soluble”.

On to “MGSDKIHHHHHHMYDAQAVQTLSSCLLRLKEGKGIGTLVSEDEADLPKVMTRLKQFDPSKNGLSINEIVHLANALIGEHMSATTIQNWTKREVRDIIGVPHRGKKYSINQAAIIYLLDDLKHLFSLEETRELLTIVFKNPNIDEDDLISPLDFYLVYTQHAETSGPIELTEKRLRRSLERINAYRPETVHVLQLCLYARRISHLTHEAKQRLQHVLQT”, for which the “soluble on expression in E. coli” value was “not soluble”.

Turning to “MGSDKIHHHHHHMYIRPFDPWKSKLCTCPFKYTLNPYTGCDHACVYCYITSYIPNAFKVRPKKNLLIQVERELRKFDKRYIIAMSYSSDPYPTIEKELGITRKVLELFRRYDVRCLILTKSDIFERDIDILKELRCAVGVTVTTIDERKAKLLEPNAPLPKDRIRALKKAKKEGIPVYARVDPIIPFYTWEDFRKTVDALSFVSHITVSTLKLRPDIKARMRAKFPELMKKLEPLYTERYEGYAYLRKDMRFRILNEARKIIEGKGITFGSCREGYYSYPTCDGSHLVP”, the “soluble on expression in E. coli” value is on record as “not soluble”.

As to “MGSDKIHHHHHHMYKLVIIEDEHIIRKWLRYAIDYKALDILVIGEAKDGKEGAVLIKESQPDIVLTDINMPIMTAFDMFEVTKDQTYAKIILSGYADFPNARSAIHYGVLEFLTKPIEKAALWECLQTIIAKIEKQKGSNQKTDACVYIPLPQMTDQIPEVVKDILEWVHAHFQDKISTSRLAHDLGYSESYIYQNIKKHLQMPLSDYINQYRINQAIQLMQQEPDLMVYEIAQAVGIYDYRYFDRVFKKYLGQTVKAFKEEHFMKDTDRSKPC”, the “soluble on expression in E. coli” value was “not soluble”.

For “MGSDKIHHHHHHMYRKDLDHYLKQRLPKAVFLYGEFDFFIHYYIQTISALFKCDNPDIETSLFYASDYEKSQIATLLEQDSLFGGSSLVVLKLDFALHKKFKENDINLFLKALERPSHNRLIIGLYNAKSDTTKYKYTSDAIVKFFQKSPLKDEAICARFFIPKTWESLKFLQERANFLHLDISGHLLNALFEINNEDLGVSFNDLDKLAVLNAPITLEDIQELSSNAGDMDLQKLILGLFLKKSALDIYDYLLKEGKKDADILRGLERYFYQLFLFFAHIKTTGLMDAKEVLGYAPPKEIAENYAKNALRLKEAGYKRVFEIFRLWHIQSMQGQKELGFLYLTSIQKIINP”, the “soluble on expression in E. coli” value is given as “not soluble”.

“MGSDKIHHHHHHMYVNRIGTFRDHPDLYGVSVYFQGCDAKPKCYMCHNPETWHLSEEYKRPSEVVTKIIDEKLSSLLRYFPKAALVFLGGEPLAPYNREEMLSLSKMFKEKYGERLTVVLFTWRLPKDIVKENLLKYVQYVDEFVMGRYLHTYRRDGFPASKNQIHIDRRTFERMIEAVLRRGHYEGSVFVRKRI”: the “soluble on expression in E. coli” value is “not soluble”.

As to “MGSDKIHHHHHHMYWVSEDNVAGKPGKVLYVILPTIGCYRYRIGKPCYMCSYPAQAPRKTSQERIFGYFLEAIGKIKGKEGRFGIRIFTSGSFFDSSEVRRGTRIKIFQEIAKLDNVFEVVVETRSEIIREEWVRELVEIIEGKWFEVALGLETANDDIADISINKGSTFRDFVRASEIIHKAGAKVKTYLLFKPIFLSEGDAIEEMKRSIELAEPYTDTFSINMTNIQKGTLYEKIWERGEYRTPWLWSVVEVLKWAKRKFPGKRFLSDPVGAGSVRGPHNCGDSRDKPVERAIRKFSTTQDLRYLEVSGDCIEEWKYIVSQGLLDWQLIKSQVSPFSTE”, the “soluble on expression in E. coli” value was “not soluble”.

Regarding “MGSDKIHHHHHHNDPNIQIATQDSLSTLNYRINQLLKNGTVTSSSKKNPEVKTDTDKTANDSTSDSRVWSKPEANVYIDIHDNMQLRSATIDAMNAWNRTGAFTFKQIDNKKNAQIIVNVVDDSGTDAAGETATTYNPATGHLLKATVHLNRYYLQNEWYGYSNNRIINTAEHELGHAIGLNHTNSVSVMYPKGSIYTIQPQDIKNLKKIYHEN”, the “soluble on expression in E. coli” value was “not soluble”.

On to “MGSDKIHHHHHHPLGSPEAGDISEERQAFLRLTAVYSVMKDFRYTWSMQCFGDVLSNDATYSGSSNDAQTFTLLENYQYQADHTEILNKYRYSYQCINKANLFIRDMEMADDALFSKYDKEQMIGEAKFIRAYTYFELVKTFGGVPCYTGVLDLDHERLGRASVEEIYSVIEQDLNDAVSVLPKKSEVANYESSYAGRITKGAAIAMQTRIYLYEKKYDEVKKAFEKFQNECGGEYSLVAPEDYTWQFSLDGEHCSSSILEVNMYNSSTQSSYNVNNGNRHVLMSMPRNMTIGFGCAQPTQALADAYDAEGDVIRKKTTLLSTEEAIEIETAAKGDVAPVTDDRTGWYNRKLYLAPGQREENRGNNQPTNLRLIRLAEVYLNYAEACYFSGDIANAQKYLNEVRSHVNLAPKNHTGSQLFEDIMNERHLEFGMEGFRFFDVVRVGWGEKVFNGTKKAEFGAKTPFSAGAEVLPIPQTEIDISDGLITN”, for which the “soluble on expression in E. coli” value is given as “not soluble”.

With “MGSDKIHHHHHHPVAIIGGGPVGLAAAAHLAVRDVPFVLFEGKSEVGASILEWKHVSLFSPWKYNIDRAAKSLLEKESWKEPAGDRLPTGEQLVRDYLQPLAETKALKPYIYTNAPVQSIYRKGIDKIKDHNRENTPFIIRYKQDNDQKTLRARAVIDATGTWFSPNPIGAGGVPAIGEEEAKDSIYYGIPDVKGKDRSRYEGKTILVVGSGHSAIHTLLDLAQLKEAAPSTRILWAIRRNSPNGLFGGGQEDALPARGQLGLALEALLSKQKVELISSFEMEQIDRVEGRLSVVGVQNESPISLPLVDEIVANTGARPTVDYHRDIRYQLDSKLESVPALAPLIDPNIHSCGTVRPHGEKELRQPEKNFYIAGVKSYGRAPTFLLATGYEQVRSIVASLAGSKKEAERVELQLPKTGVCKSDFLAKRSCC”, the “soluble on expression in E. coli” value is “not soluble”.
